Assay results from the supplement of paper PMC10065799, “High-throughput profiling of sequence recognition by tyrosine kinases and SH2 domains using bacterial peptide display” (eLife, 2023).

What was measured:
AncSZ = assay: phosphorylation enrichment, bacterial display (enrichment ratio); higher = better substrate or ligand; peptides without Tyr show the background
EPHB1 = EPHB1 (UniProt P54762); assay: as above
EPHB2 = EPHB2 (UniProt P29323); assay: as above
FGFR1 = FGFR1 (UniProt P11362); assay: as above
FGFR3 = FGFR3 (UniProt P22607); assay: as above
Fer (mouse) = assay: as above
Fes = Fes (UniProt P07332); assay: as above
Fyn = Fyn (UniProt P06241); assay: as above
Hck = Hck (UniProt P08631); assay: as above
Jak2 = Jak2 (UniProt O60674); assay: as above
MERTK = MERTK (UniProt Q12866); assay: as above
c-Abl (mouse) = assay: as above
c-Src = assay: as above
Grb2 SH2 = Grb2 SH2 (UniProt P62993); assay: SH2 binding enrichment of the phosphorylated peptide, bacterial display (enrichment ratio); higher = better substrate or ligand; peptides without Tyr show the background
SHP2-C SH2 = assay: as above
c-Src SH2 = assay: as above
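For SH2 binding enrichment of the phosphorylated peptide, bacterial display in this document: peptide library displayed on the E. coli surface as eCPX fusions, selected cells deep-sequenced, score is each peptide's frequency after selection divided by its frequency in the input.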
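For phosphorylation enrichment, bacterial display in this document: 11-residue human phosphosite peptides and single-mutation variants displayed on the E. coli surface, counted by deep sequencing, each peptide's frequency after selection divided by its frequency in the unselected input library; frequency after pTyr selection over input frequency; kinase dosed for 20-30% of maximal phosphorylation in three min.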

Sequence of MERTK (Q12866 whole entry, looked up): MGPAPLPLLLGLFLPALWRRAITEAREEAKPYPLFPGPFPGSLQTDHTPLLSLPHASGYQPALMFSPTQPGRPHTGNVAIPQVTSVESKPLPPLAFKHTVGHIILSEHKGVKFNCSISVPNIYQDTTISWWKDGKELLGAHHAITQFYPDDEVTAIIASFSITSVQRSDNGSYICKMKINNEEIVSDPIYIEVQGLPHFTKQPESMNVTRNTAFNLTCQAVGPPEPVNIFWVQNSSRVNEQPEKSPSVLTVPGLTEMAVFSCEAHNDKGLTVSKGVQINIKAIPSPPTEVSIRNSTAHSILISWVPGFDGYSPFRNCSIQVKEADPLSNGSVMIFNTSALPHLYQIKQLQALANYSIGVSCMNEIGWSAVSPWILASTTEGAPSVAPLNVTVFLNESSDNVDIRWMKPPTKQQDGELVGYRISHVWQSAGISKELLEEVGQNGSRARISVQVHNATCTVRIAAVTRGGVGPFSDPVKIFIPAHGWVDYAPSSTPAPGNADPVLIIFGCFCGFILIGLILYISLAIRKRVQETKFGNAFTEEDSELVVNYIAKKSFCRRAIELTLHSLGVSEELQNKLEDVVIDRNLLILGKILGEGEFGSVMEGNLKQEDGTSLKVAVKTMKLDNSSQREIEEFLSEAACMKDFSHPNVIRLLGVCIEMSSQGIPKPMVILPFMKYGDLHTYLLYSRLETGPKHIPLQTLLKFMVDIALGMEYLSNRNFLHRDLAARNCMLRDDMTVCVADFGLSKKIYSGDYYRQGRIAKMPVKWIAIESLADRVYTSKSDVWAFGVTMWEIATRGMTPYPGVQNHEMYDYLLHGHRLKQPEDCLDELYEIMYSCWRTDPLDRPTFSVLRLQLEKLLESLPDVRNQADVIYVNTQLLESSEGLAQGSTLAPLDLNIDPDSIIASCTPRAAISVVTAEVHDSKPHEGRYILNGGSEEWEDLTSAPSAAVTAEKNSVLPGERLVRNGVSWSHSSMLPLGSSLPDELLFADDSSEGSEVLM
Sequence of Hck (P08631 whole entry, looked up): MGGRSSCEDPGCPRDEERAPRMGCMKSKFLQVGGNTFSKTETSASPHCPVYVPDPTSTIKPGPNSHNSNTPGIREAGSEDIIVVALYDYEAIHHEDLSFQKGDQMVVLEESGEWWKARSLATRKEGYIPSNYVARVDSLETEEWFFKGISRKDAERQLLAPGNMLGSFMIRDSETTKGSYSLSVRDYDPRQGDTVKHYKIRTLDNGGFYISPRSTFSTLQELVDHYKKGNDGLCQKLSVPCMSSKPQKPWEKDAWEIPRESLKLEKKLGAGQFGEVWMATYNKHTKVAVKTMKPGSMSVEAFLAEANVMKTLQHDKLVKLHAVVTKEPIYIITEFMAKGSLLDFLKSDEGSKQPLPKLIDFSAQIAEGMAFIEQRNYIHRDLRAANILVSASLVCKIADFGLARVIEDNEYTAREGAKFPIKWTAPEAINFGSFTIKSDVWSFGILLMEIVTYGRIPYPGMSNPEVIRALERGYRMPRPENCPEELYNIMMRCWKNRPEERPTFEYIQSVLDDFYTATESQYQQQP
Sequence of EPHB1 (P54762 whole entry, looked up): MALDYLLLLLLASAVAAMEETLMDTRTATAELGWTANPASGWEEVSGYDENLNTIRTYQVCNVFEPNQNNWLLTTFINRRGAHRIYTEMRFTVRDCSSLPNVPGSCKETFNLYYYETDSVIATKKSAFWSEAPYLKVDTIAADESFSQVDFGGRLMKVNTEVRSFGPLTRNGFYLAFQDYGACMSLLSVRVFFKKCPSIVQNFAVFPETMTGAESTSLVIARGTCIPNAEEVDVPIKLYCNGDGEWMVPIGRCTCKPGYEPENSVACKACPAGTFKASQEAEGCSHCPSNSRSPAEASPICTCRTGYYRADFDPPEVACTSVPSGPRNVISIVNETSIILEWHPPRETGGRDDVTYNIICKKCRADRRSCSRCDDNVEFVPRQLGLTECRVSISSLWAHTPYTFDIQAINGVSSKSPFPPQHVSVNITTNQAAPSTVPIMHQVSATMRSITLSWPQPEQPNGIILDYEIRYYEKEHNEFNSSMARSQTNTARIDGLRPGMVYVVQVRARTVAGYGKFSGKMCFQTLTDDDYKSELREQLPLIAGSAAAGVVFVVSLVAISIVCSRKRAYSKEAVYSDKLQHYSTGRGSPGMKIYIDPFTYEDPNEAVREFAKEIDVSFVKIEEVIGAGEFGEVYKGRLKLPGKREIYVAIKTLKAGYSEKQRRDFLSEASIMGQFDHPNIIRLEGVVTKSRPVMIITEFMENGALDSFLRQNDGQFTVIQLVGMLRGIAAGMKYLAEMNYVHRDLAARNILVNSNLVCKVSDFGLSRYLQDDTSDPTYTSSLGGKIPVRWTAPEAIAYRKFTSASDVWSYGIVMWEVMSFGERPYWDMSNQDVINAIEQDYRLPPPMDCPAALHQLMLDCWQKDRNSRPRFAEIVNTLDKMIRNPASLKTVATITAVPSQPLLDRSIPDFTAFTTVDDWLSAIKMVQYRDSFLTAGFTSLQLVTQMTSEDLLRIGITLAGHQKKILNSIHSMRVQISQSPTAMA
Sequence of Jak2 (O60674 whole entry, looked up): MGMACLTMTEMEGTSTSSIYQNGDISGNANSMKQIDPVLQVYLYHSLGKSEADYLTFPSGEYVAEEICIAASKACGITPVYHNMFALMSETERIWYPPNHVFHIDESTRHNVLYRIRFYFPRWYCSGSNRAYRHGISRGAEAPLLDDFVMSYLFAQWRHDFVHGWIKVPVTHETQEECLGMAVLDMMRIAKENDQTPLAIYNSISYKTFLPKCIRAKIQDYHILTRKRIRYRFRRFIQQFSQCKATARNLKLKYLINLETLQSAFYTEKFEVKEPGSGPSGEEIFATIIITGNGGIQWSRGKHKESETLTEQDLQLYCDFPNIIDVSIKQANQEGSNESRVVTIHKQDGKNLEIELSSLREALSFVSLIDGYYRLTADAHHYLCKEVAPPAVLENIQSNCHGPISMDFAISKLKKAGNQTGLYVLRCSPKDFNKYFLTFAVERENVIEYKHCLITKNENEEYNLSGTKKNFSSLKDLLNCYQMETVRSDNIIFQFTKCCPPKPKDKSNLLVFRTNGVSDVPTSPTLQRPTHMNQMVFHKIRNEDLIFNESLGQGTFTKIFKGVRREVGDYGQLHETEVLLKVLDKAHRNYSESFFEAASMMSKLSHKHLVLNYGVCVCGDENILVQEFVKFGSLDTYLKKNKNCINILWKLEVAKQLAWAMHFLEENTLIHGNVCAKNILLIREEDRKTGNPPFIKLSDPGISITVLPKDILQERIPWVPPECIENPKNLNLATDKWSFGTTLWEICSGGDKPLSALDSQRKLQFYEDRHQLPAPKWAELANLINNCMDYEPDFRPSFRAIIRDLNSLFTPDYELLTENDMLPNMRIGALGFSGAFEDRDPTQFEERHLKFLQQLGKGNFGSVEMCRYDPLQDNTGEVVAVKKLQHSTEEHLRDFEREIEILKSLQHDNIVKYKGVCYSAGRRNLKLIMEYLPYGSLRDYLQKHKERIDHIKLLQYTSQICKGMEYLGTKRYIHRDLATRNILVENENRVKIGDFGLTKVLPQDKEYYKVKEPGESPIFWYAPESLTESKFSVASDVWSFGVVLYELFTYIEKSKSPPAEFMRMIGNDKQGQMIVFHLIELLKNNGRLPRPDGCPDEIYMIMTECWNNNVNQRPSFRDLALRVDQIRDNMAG
Sequence of Fes (P07332 whole entry, looked up): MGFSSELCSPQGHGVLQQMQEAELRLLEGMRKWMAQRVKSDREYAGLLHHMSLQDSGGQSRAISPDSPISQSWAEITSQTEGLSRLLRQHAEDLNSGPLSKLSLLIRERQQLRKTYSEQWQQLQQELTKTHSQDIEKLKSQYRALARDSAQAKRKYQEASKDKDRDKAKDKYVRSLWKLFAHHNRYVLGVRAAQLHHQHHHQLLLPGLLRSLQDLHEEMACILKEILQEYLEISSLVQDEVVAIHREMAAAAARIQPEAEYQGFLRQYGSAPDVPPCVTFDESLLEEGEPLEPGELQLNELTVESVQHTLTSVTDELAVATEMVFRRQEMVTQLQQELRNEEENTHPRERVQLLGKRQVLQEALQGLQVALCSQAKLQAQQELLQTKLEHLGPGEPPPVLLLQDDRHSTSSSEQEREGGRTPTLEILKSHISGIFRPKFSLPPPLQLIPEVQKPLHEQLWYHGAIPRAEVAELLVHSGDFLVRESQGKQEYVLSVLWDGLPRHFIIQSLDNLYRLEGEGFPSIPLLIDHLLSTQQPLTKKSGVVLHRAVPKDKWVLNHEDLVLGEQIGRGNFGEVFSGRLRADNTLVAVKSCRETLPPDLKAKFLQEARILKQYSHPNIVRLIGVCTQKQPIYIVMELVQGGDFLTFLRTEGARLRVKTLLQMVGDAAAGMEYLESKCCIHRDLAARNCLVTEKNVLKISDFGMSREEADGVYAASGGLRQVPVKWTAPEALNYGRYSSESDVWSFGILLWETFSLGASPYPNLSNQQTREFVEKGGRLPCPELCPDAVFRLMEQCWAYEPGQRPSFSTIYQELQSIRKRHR
Sequence of Fyn (P06241 whole entry, looked up): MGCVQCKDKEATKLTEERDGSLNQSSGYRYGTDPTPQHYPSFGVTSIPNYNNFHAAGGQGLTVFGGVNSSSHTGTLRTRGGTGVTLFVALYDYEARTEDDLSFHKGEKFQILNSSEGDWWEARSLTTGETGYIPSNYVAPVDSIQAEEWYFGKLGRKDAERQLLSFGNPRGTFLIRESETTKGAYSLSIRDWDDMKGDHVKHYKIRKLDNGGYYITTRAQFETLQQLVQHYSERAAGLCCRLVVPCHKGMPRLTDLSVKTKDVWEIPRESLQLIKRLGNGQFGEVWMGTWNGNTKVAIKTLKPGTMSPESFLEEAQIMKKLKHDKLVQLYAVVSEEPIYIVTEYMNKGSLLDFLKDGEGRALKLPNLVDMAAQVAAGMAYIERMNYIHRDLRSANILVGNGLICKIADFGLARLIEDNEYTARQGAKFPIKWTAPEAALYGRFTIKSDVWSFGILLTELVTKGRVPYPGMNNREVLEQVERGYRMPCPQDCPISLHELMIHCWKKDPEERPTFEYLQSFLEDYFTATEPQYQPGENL

Row | SH2 binding enrichment (Grb2 SH2) | SH2 binding enrichment (SHP2-C SH2) | SH2 binding enrichment (c-Src SH2) | Sequence | phosphorylation enrichment (AncSZ) | phosphorylation enrichment (EPHB1) | phosphorylation enrichment (EPHB2) | phosphorylation enrichment (FGFR1) | phosphorylation enrichment (FGFR3) | phosphorylation enrichment (Fer (mouse)) | phosphorylation enrichment (Fes) | phosphorylation enrichment (Fyn) | phosphorylation enrichment (Hck) | phosphorylation enrichment (Jak2) | phosphorylation enrichment (MERTK) | phosphorylation enrichment (c-Abl (mouse)) | phosphorylation enrichment (c-Src)
1 | 0.72 | 0.717 | 0.676 | VSYDEYRYRSF [CFTR_Y515_V520F] | 0.89 | 0.69 | 0.467 | 0.486 | 0.606 | 0.435 | 0.951 | 0.548 | 0.598 | 0.983 | 0.522 | 0.916 | 0.939
2 | 1.26 | 1.36 | 0.796 | WLFFRYLPIGC [ATP2A2_Y836_A838P] | 1.29 | 0.529 | 0.531 | 0.538 | 0.778 | 0.559 | 1.3 | 0.38 | 0.477 | 1.14 | 0.415 | 0.657 | 0.345
3 | 0.966 | 0.733 | 0.666 | WVYNHYRWFIW [BRCA2_Y2624_I2627F] | 1.12 | 0.506 | 0.466 | 0.406 | 0.667 | 0.49 | 1.24 | 0.441 | 0.403 | 1.15 | 0.418 | 0.777 | 0.433
4 | 0.716 | 0.623 | 0.571 | YFCRWYRNRKS [EREG_Y144] | 0.864 | 0.621 | 0.572 | 0.61 | 0.515 | 0.478 | 0.635 | 0.618 | 0.741 | 0.683 | 0.889 | 0.714 | 0.753
5 | 6.36 | 1.22 | 1.6 | YGMQLYQNYMH [GRB14_Y347] | 1.11 | 9.11 | 12.4 | 0.888 | 0.909 | 8.99 | 1.02 | 4.92 | 4.84 | 0.727 | 3.75 | 1.2 | 3.97
6 | 1.15 | 1.81 | 5.37 | YHLLPYTVRAM [PARS2_Y93] | 1.28 | 2.32 | 1.47 | 16.5 | 13.9 | 0.595 | 0.913 | 3.04 | 8.34 | 6.87 | 9.72 | 24.6 | 3.84

Further lines, the sequence ahead of its results:

Row | Sequence | SH2 binding enrichment (Grb2 SH2) | SH2 binding enrichment (SHP2-C SH2) | SH2 binding enrichment (c-Src SH2) | phosphorylation enrichment (AncSZ) | phosphorylation enrichment (EPHB1) | phosphorylation enrichment (EPHB2) | phosphorylation enrichment (FGFR1) | phosphorylation enrichment (FGFR3) | phosphorylation enrichment (Fer (mouse)) | phosphorylation enrichment (Fes) | phosphorylation enrichment (Fyn) | phosphorylation enrichment (Hck) | phosphorylation enrichment (Jak2) | phosphorylation enrichment (MERTK) | phosphorylation enrichment (c-Abl (mouse)) | phosphorylation enrichment (c-Src)
7 | VTPVMYTYDEY [COL10A1_Y623_G618V] | 1.05 | 0.685 | 2.44 | 1.15 | 0.633 | 0.798 | 0.637 | 0.795 | 0.542 | 1.05 | 1.61 | 0.932 | 0.917 | 0.912 | 0.568 | 2.22
8 | VVHSSYDEIEG [SEC24A_Y263] | 1.03 | 0.87 | 36.8 | 1.04 | 0.51 | 0.549 | 0.493 | 0.648 | 0.492 | 1.12 | 0.498 | 0.475 | 0.892 | 0.429 | 0.713 | 0.442
9 | WAFNLYDINKF [KCNIP3_Y174_D179Y_YF] | 0.905 | 0.731 | 0.519 | 1.02 | 2.22 | 3.11 | 0.497 | 0.669 | 4.81 | 1.26 | 2.08 | 3.36 | 0.933 | 3.37 | 0.662 | 1.61
10 | WDLSEYSYKDP [ITGA3_Y237] | 0.932 | 0.704 | 0.878 | 1.85 | 0.424 | 0.568 | 0.513 | 0.631 | 0.449 | 0.998 | 0.914 | 0.673 | 0.997 | 0.416 | 0.614 | 0.916
11 | YARECYSALPQ [SARS2_Y52_G51C] | 0.74 | 0.753 | 0.776 | 1.16 | 0.712 | 0.868 | 2.42 | 1.57 | 0.663 | 0.972 | 0.636 | 3.13 | 0.666 | 1.7 | 0.716 | 0.676
12 | YGAHKYHPLPV [OAT_Y55_N54K] | 1.65 | 1.74 | 1.36 | 0.657 | 0.371 | 0.39 | 0.444 | 0.403 | 1.08 | 0.892 | 0.611 | 0.787 | 0.557 | 0.442 | 0.498 | 0.562
13 | YGMSSYITRED [FNDC3B_Y180_T179S] | 0.764 | 0.669 | 0.472 | 0.819 | 0.545 | 0.452 | 0.529 | 0.696 | 0.524 | 0.844 | 0.423 | 0.431 | 0.697 | 0.544 | 0.645 | 0.51
14 | YIILIYAMKKK [SLCO1B1_Y645] | 2.34 | 2.86 | 2.04 | 0.588 | 0.486 | 0.348 | 0.331 | 0.692 | 0.399 | 0.511 | 0.514 | 0.53 | 0.451 | 0.416 | 0.426 | 0.363
15 | YPLELYERVRM [PRKCG_Y312] | 1.02 | 0.83 | 1.11 | 1.19 | 2.02 | 1.18 | 0.481 | 0.622 | 3.71 | 1.25 | 0.518 | 1.65 | 1.25 | 0.432 | 0.632 | 0.699
